Literature values as cited in article PMC3604136.

Target: ARNT PAS-B (Homo sapiens) (UniProt P27540)
Sequence (P27540 356-470): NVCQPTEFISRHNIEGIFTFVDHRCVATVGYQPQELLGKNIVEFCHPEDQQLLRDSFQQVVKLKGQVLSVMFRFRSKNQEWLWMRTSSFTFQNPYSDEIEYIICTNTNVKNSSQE

HIF-2α PAS-B, sequence (Q99814 239-350): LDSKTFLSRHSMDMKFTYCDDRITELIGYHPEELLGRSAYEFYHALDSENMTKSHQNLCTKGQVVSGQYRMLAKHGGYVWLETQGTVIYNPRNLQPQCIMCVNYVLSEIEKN

Kd: 100 µM
Substance: HIF-2α PAS-B (from UniProt Q99814)
